This note sets out measurements from patent US20220033498A1 (UNIVERSITY OF TOKYO, published 2022).

The assay addresses T1, mouse CHL1 protein expressed on the surface of HEK293 cells transfected with mChl1 pIRES2-EGFP (mouse, UniProt P70232 26-1209).
T1 construct: whole, on cells; also called CHL1 protein on cell surface; cell adhesion molecule L1-like
T1 sequence (looked up): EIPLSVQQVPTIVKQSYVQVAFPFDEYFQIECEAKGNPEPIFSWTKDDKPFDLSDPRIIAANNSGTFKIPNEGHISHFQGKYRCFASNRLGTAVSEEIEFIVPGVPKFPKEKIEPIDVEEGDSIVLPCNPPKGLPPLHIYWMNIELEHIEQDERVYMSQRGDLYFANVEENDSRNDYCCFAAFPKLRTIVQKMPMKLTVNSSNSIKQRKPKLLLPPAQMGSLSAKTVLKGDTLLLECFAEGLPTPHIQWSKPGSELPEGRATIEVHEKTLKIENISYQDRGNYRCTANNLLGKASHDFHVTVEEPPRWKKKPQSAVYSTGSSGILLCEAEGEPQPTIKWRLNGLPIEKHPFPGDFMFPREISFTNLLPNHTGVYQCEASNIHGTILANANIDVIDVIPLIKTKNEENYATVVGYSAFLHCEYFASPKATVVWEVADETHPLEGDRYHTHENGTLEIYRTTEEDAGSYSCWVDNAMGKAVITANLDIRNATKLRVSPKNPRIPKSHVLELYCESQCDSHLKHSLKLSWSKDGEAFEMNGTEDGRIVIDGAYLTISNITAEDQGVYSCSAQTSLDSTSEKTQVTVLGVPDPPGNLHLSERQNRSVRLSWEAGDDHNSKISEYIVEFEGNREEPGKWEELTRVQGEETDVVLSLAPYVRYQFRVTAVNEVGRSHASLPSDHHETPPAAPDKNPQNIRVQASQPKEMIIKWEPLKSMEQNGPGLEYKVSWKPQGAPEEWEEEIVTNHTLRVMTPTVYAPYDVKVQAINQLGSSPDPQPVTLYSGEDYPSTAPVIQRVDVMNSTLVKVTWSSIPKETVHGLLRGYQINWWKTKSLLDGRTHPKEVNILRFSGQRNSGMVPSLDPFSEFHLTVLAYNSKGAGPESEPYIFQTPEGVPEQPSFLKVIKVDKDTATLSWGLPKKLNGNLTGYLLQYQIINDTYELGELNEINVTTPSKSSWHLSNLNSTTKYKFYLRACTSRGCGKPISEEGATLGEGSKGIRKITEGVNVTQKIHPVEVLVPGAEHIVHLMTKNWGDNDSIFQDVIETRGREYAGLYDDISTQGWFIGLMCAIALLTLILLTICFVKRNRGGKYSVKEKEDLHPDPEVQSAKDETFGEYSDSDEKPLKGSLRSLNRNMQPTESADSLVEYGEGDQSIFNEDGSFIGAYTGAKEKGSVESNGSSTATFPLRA
Nature of the assay: FACS: hybridoma culture supernatant on HEK293 cells transfected with mChl1 pIRES2-EGFP, detected with APC goat anti-rat IgG. The text has this:
Mouse CHL1 gene (mChl1) was cloned into pIRES2-EGFP vector by PCR using Phusion (Thermo Fisher Scientific Inc.: F530L). Y3Ag cells ([…]) were transfected with mChl1 pIRES2-EGFP by electroporation, and four 7-week-old female or male SD rats (CLEA Japan, Inc.) were immunized from their footpads and tail roots with a mixture of the cells with TiterMax Gold (Funakoshi Co., Ltd.: G-1X5). After 3 to 8 immunizations, inguinal lymph nodes or iliac lymph nodes were isolated, and their cells were fused with AG8 myeloma cells using PEG1500 (Roche: 10783641001). The obtained hybridomas were screened in HAT medium (DS Pharma Biomedical Co., Ltd.: 16-808-49) or HT medium (DS Pharma Biomedical Co., Ltd.: 16-809-49) under conditions supplemented with BM condimed H1 (Roche: 11088947001). The culture supernatants were collected and reacted with HEK293 cells transfected with mChl1 pIRES2-EGFP. Then, antibody titers in the supernatants were studied by FACS analysis using APC goat anti-Rat IgG (BioLegend, Inc.: 405407).

B1: 336 antibody, a monoclonal antibody to the CHL1 protein (antibody, V domains shown)
VH: EVQLQQSGPELQRPGASVKLSCKASGYPFTEYYIYWMKQRPKQGLELIGRIDPEDGSTDYVEKFKNKATLTADTSSNTAYMQLSSLTSEDTATYFCARALQGFAYWGQGTLVTVSS
VL: EIVLTQSPTTMAASPGEKVTLTCRASSSVSYMYWYLQKSGTSPKLWIYDTSRLASGIPDRFSGSGSGTSYSLTISSMETEDTATYYCQQGGSYPYTFGAGTKLELKR
notes: Rat monoclonal antibody from SD rats immunized with Y3Ag cells expressing mouse CHL1; Used as hybridoma culture supernatant in the FACS screen, and as protein G-purified antibody from ascitic fluid in later work
For B1, the binding result is reported as “binds”.
